Experimental findings from publication PMC11912937 are described below.

The target of this assay is FACT complex (SPT16/SSRP1), full length, untreated (human) (UniProt Q9Y5B9). The assay can be described thus: SEC; analytical SEC of CCAN with different amounts of FACT; peak fractions on SDS-PAGE with TCE, tryptophan fluorescence of the bands normalised to the number of tryptophans and to SPT16.
Chain of FACT complex (SPT16/SSRP1), full length, untreated (human) (Q9Y5B9 whole entry, chain 1 of 2): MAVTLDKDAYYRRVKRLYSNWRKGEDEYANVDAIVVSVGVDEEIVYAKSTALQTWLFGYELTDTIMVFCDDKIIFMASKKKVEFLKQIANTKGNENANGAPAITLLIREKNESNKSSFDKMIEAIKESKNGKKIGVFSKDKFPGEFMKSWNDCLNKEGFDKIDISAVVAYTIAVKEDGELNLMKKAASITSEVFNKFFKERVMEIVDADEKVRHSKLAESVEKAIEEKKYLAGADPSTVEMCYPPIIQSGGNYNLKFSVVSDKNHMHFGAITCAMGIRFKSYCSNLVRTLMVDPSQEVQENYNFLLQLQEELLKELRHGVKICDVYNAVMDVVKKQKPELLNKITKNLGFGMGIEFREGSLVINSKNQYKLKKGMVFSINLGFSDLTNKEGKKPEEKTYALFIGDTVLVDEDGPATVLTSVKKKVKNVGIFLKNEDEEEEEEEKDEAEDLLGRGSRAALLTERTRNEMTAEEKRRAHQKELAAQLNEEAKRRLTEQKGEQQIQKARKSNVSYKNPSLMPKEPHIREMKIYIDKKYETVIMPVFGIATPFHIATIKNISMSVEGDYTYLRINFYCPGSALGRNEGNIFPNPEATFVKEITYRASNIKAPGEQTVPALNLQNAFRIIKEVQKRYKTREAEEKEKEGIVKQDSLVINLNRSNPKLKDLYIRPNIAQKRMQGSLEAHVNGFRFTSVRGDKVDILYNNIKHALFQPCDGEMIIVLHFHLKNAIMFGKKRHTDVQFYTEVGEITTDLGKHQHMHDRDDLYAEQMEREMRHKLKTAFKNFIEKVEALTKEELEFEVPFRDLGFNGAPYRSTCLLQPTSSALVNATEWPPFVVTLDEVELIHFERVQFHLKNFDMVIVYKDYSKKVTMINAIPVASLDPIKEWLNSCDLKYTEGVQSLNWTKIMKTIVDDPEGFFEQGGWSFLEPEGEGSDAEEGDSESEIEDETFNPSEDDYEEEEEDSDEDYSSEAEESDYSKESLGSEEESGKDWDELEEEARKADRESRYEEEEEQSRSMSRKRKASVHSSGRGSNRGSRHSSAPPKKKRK
Chain of FACT complex (SPT16/SSRP1), full length, untreated (human) (Q08945 whole entry, chain 2 of 2, further chain): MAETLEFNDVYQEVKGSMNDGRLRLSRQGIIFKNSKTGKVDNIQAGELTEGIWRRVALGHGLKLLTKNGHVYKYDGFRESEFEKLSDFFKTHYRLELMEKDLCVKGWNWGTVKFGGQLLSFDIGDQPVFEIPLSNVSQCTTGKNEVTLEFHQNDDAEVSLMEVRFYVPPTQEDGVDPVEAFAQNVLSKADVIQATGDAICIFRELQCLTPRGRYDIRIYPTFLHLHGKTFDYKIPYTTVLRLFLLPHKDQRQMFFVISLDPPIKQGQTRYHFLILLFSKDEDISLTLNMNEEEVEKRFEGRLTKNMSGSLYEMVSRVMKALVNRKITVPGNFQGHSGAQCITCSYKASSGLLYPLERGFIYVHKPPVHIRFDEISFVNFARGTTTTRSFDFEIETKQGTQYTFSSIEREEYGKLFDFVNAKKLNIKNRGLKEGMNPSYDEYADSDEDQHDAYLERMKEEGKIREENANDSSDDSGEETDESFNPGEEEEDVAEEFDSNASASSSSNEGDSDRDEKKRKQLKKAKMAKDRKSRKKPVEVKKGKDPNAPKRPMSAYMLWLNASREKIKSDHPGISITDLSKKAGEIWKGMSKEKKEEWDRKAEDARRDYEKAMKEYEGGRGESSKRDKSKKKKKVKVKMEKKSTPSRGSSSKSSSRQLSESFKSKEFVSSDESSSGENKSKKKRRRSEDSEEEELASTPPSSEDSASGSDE

Turning to “CCAN, 16-subunit constitutive centromere-associated network reconstituted with CENP-C^2–545 (from UniProt Q03188 2-545; Q9H3R5 1-247; Q92674 1-756; Q9BS16 1-269; Q9NSP4 1-180; Q8N0S6 1-344; Q96H22 1-339; Q9BU64 1-300; Q6IPU0 1-288; Q7L2Z9 1-268; Q71F23 1-418; Q13352 1-177; Q96BT3 1-561; Q5EE01 1-88; Q8N2Z9 1-138; A8MT69 1-81) (complex)”, the stoichiometry N (FACT per CCAN) came to 1.
